According to PMC4766014, “Structures of Two Melanoma-Associated Antigens Suggest Allosteric Regulation of Effector Binding” (PLoS ONE, 2016):

Biological target: the molecule itself
Experiment: AUC; sedimentation velocity, 4°C, 45,000 rpm, 10 mM HEPES pH 7.5, 150 mM NaCl, 0.5 mM TCEP; MAGE-A3 at 0.75 mg/ml, MAGE-A4 at 0.5 mg/ml; c(s) analysis with SEDFIT

Protein | stoichiometry N
MAGE-A3 MHD domain, residues 104-314 (domain or fragment, human, UniProt P43357 104-314, looked up, MAGE-A3, human, MAGE homology domain (MHD), residues 104-314; Dimer in solution by AUC and SAXS (dimer B interface); The final 4 residues are disordered in the crystal structure; also called MAGE-A3^104-314; melanoma associated antigen A3) EFQAALSRKVAELVHFLLLKYRAREPVTKAEMLGSVVGNWQYFFPVIFSKASSSLQLVFGIELMEVDPIGHLYIFATCLGLSYDGLLGDNQIMPKAGLLIIVLAIIAREGDCAPEEKIWEELSVLEVFEGREDSILGDPKKLLTQHFVQENYLEYRQVPGSDPACYEFLWGPRALVETSYVKVLHHMVKISGGPHISYPPLHEWVLREGEE | 2
MAGE-A3 C-terminally truncated construct, residues 104-294 (domain or fragment, human, UniProt P43357 104-294, looked up, MAGE-A3, human, residues 104-294 (lacks the final 20 residues of the crystallized construct); also called MAGE-A3^104-294) EFQAALSRKVAELVHFLLLKYRAREPVTKAEMLGSVVGNWQYFFPVIFSKASSSLQLVFGIELMEVDPIGHLYIFATCLGLSYDGLLGDNQIMPKAGLLIIVLAIIAREGDCAPEEKIWEELSVLEVFEGREDSILGDPKKLLTQHFVQENYLEYRQVPGSDPACYEFLWGPRALVETSYVKVLHHMVKIS | 2
